# B1: murine 10G5: mouse monoclonal anti-human Axl antibody from hybridoma WR-10G5-E5; VH SEQ ID NO: 28, VL SEQ ID NO: 29 (antibody, listed as Mus musculus, V domains shown)
# VH: QVQLQQSGAELVRPGASVKLSCKASGYSFTDFYINWVRQRPGQGLEWIARIFPGGDNTYYNEKFKGKATLTAEESSSTAYIQLSSLTSEDSAVYFCARRGLYYAMDYWGQGISVTVSS
# VL: DVLMTQTPLSLPVSLGDQASISCRSSQSLVHSNGIPYLHWYLQKPGQSPKLLIYRVSNRFSGVPDRFSGSGSGTDFTLKISRVEAEDLGVYFCSQGTHVPPTFGGGTKLEIK
# modifications: (1)..(118) Mus musculus 10G5 VH domain; (1)..(112) Mus musculus 10G5 VL domain
# B2: c10G5: chimeric (mouse variable/human constant) IgG1 antibody with the 10G5 VH and VL (antibody, V domains shown)
# VH: QVQLQQSGAELVRPGASVKLSCKASGYSFTDFYINWVRQRPGQGLEWIARIFPGGDNTYYNEKFKGKATLTAEESSSTAYIQLSSLTSEDSAVYFCARRGLYYAMDYWGQGISVTVSS
# VL: DVLMTQTPLSLPVSLGDQASISCRSSQSLVHSNGIPYLHWYLQKPGQSPKLLIYRVSNRFSGVPDRFSGSGSGTDFTLKISRVEAEDLGVYFCSQGTHVPPTFGGGTKLEIK
# Tests used:
# [1] = tested on: Axl-positive cells (MDA-MB-231); assay: Flow cytometry binding to Axl-positive cells; design: species or system human
# Method: Different concentrations of chimeric antibody was tested in flow cytometry for binding to triple-negative breast cancer cell line MDA-MB-231. The bound chimeric antibody was detected with APC-conjugated donkey F(ab′)2 fragments specific for either mouse IgG (H+L), 1:500 dilution, or human IgG (H+L), 1:300 dilution, respectively (both from Jackson ImmunoResearch). The cell staining was measured using Accuri C6 flow cytometer (BD Biosciences). MFI, geometric mean fluorescence intensity.
# For flow cytometry, the adherent cells in culture were washed with PBS, detached by trypsin (0.25%) treatment for 1 min and hitting culture dish for full detachment. Trypsin was quenched by adding into the tissue flask the complete medium followed by washing the cells with PBS. […]
# The purified chimeric antibodies (>95% purity) were analysed for binding to Axl-positive breast cancer cell line MDA-MB-231 in flow cytometry. […] The cell-bound antibodies were detected with APC-conjugated donkey anti-human or anti-mouse, respectively, IgG (H+L) F(ab′)2 fragments (Jackson ImmunoResearch). […]
# For flow cytometry, the adherent cells in culture were washed with PBS, detached by treatment with trypsin (0.25%) for 1 min. […] The cell-bound antibodies were detected with APC-conjugated donkey anti-human IgG (H+L) F(ab′)2 fragments (Jackson ImmunoResearch Laboratories #709-136-149, 1:400 dilution). […]
# [2] = biological target: T1, human Axl (rhAxl-Fc chimera) (Homo sapiens, UniProt P30530); assay: Biacore kinetic analysis (surface plasmon resonance) on immobilised rhAxl-Fc; type: binding; conditions: rhAxl immobilized on Biacore sensor chip, 25° C., 1:1 Langmuir binding model
# T1 construct: Soluble recombinant antigens corresponding to the extracellular domains of members of the human TAM receptor family; Fc; purchased R&D Systems 154-AL
# Method: Kinetic analysis of murine MAb 10G5 interacting with rhAxl immobilized on the surface of the Biacore sensor chip. Overlay plots of sensograms for different antibody concentrations (0.3-166.7 nM for murine 10G5) are shown. The precise kinetic analysis was performed using BIA evaluation software and curve fitting according to 1:1 Langmuir binding model. […]
# Affinity determination of anti-Axl antibody 10G5 was performed at 25° C. by surface plasmon resonance measurements using Biacore 3000 instrument (GE Healthcare). As a solid antigen-coated surface, a sensor chip CM5 with immobilized rhAxl-Fc chimera (R&D Systems, Cat. no. 154-AL) at density 190 RU was used.
# For the kinetics measurements, different concentrations of anti-Axl antibodies (from 0.3 to 666.7 nM) in HBS-EP buffer (Biacore, Cat. no. BR-1001-88) were injected at flow rate of 30 μL/min with 3 min injection time followed by 5 min dissociation (buffer alone). After each cycle, the surface was regenerated by 30 sec injection of a regeneration solution (10 mM HCl, 1 M NaCl) at flow rate 50 μL/min.
# The kinetic association (on-rate, kon) and dissociation (off-rate, koff) rates were calculated using BIAevaluation software and 1:1 Langmuir binding model. The equilibrium dissociation constant (KD) was calculated as the koff/kon ratio. The half-life (t1/2) of the formed antibody-antigen complexes was calculated as the ln 2/koff ratio. […]
molecule,measurement,setting,value
B1,Binding to Axl+ cells in flow cytometry (clone selection),[1]; Example 1,specific binding
same,Off-rate (koff),[2],0.000439 s⁻¹
same,On-rate (kon),[2],829000 M⁻¹ s⁻¹
B2,Binding to Axl-positive MDA-MB-231 cells in flow cytometry,"[1]; titration of antibody, APC-conjugated secondary",Dose-dependent binding
same,Off-rate (koff),[2],0.000169 s⁻¹
same,On-rate (kon),[2],1.64e+06 M⁻¹ s⁻¹
